The record followed here is patent US20250277038A1 (SHANGHAI JEMINCARE PHARMACEUTICAL, published 2025).

Positions count from the first letter of the chain named.

As usually defined, the Kd is the equilibrium constant for the complex coming apart. A lower Kd goes with higher affinity. The term koff denotes the first-order rate constant of dissociation. The low end stands for a long-lived complex, the high end for a short-lived complex. As a reminder, the kon is the second-order rate constant of association. Low values mean slow association, high ones fast association.

B1: anti-human PD-L1 monoclonal antibody 50G2-3 (antibody, V domains shown)
VH: EVQLVESGGGLVQPGRSLKLSCVASGFTFSNFWMTWIRQAPGKGLEWVASITHSGGITYYPDSVKGRFTISRDDAKSTLYLQMNSLRSEDTATYYCSRDPTEAPFDYWGQGVMVTVSS
VL: DIQMTQSPPSLSASLGDQVTITCQASQNINNYIAWYQQKPGKAPRQLIRYTSTLVSGTPSRFSGSGSGKDYSFSISNVESEDIASYYCLQYDNVPNTFGAGTKLELK
notes: also called murine hybridoma clone 50G2-3
B2: 1910G2HzL7H7 (antibody, V domains shown)
VH: B1 VH with R16G, K19R, V23A, I37V, P61A, A75S, S88A, T93V, V112T, M113L
VL: DIQMTQSPSSLSASVGDRVTITCQASQNINNYIAWYQQKPGKAPKQLIRYTSTLVSGVPSRFSGSGSGKDYTFTISSLQPEDIATYYCLQYDNVPNTFGQGTKLEIK
notes: Only the variable domains are tied to the name; Full chains are not tied to the name; also called humanized antibody 1910G2HzL7H7; 1910G2HzL7 + 1910G2HzH7
B3: 1910G2HzL4H4 (antibody, V domains shown)
VH: B1 VH with R16G, K19R, V23A, I37V, A75S, S77N, S88A, T93V, V112T, M113L
VL: B2 VL
notes: Only the variable domains are tied to the name; Full chains are not tied to the name; also called humanized antibody 1910G2HzL4H4; 1910G2HzL4 + 1910G2HzH4
B4: 1910G2HzL2H2 (antibody, V domains shown)
VH: B1 VH with R16G, K19R, V23A, I37V, P61V, T78S, S88A, T93V, V112T, M113L
VL: B2 VL
notes: Only the variable domains are tied to the name; Captured on an AHC sensor and detected with anti-human secondary antibody; also called humanized antibody 1910G2HzL2H2; 1910G2HzL2 + 1910G2HzH2
B5: 1910G2HzL3H3 (antibody, V domains shown)
VH: B1 VH with R16G, K19R, V23A, T35S, I37V, P61V, D74N, T78S, S88A, T93V
VL: B2 VL with V58T, S77N
notes: Only the variable domains are tied to the name; Full chains are not tied to the name; also called humanized antibody 1910G2HzL3H3; 1910G2HzL3 + 1910G2HzH3
B6: 1910G2HzL9H9 (antibody, V domains shown)
VH: EVQLVESGGGLVQPGGSLRLSCAASGFTFSNFWMSWVRQAPGKGLEWVASITHSGGITYYADSVKGRFTISRDDSKNTLYLQMNSLRAEDTAVYYCSRDPTEAPFDYWGQGTLVTVSS
VL: B2 VL with Y71F
notes: Only the variable domains are tied to the name; Full chains are not tied to the name; also called humanized antibody 1910G2HzL9H9; 1910G2HzL9 + 1910G2HzH9

T1 sequence (Q9NZQ7 19-290): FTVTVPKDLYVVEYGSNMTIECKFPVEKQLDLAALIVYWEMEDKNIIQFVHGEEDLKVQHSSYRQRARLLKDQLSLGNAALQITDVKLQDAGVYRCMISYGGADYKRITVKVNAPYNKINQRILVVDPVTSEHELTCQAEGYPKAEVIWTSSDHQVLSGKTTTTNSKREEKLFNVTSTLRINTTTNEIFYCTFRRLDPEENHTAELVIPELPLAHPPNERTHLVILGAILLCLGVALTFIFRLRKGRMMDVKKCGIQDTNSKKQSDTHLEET

The first assay has as its target T1, human PD-L1 protein on HEK293 cell (human, UniProt Q9NZQ7 19-290).
T1 construct: whole, on cells; also called HEK293-hPD-L1; HEK293-PD-L1
As to the kind of experiment: flow cytometry screening on HEK293-PD-L1 cells. As to the method:
Clones that specifically bind to HEK293-PD-L1 cells and can simultaneously block the binding of receptor PD-1 to HEK293-hPD-L1 cells were screened from the fusion plate by flow cytometer and subcloning was carried out by limited dilution method, and finally a monoclonal that can secrete specific antibodies was screened. Monoclonal antibodies were obtained by small-scale production and purification in serum-free medium for subsequent identification, including the detection of the binding ability of antibodies to HEK293-PD-L1, the function of blocking binding of PD-1 to HEK293-hPD-L1 cell, and the mixed lymphocyte experiment to finally obtain candidate anti-human PD-L1 monoclonal antibody 50G2-3. The sequences of the variable regions of murine hybridoma clone 50G2-3 obtained by monoclonal antibody sequencing is as follows: […]
As to B1, the binding result is on record as “binds”.

The next assay deals with T2, human PD-L1 (Acro, Catalog Number: H5229) (human, UniProt Q9NZQ7 19-238).
T2 construct: Soluble antigen in the BLI assay; also called antigen
T2 sequence (Q9NZQ7 19-238 limits assumed): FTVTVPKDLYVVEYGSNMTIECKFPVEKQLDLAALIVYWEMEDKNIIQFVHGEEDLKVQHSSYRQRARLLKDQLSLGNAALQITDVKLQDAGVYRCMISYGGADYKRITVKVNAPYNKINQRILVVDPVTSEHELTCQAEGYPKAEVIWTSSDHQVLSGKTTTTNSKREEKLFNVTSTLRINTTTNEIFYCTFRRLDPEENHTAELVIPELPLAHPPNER
As to the kind of experiment: BLI, Octet RED96e, antibody on AHC sensor, antigen 100 nM, 1:1 fit. As to the method: (2) Detection of samples on machines (Octet Data Acquisition 11.1.0.11): First, the sample was added into a 96-well plate (Greiner bio-one, 655209) with a system of 200 μL/well. Then the software parameters were set, the plate temperature was set to 30° C., and the frequency of collecting standard dynamic signals was 5.0 HZ. Next, the AHC sensor (Fortébio, Catalog Number: 18-0015) was pre-wetted with 1xPBST for 10 minutes, and then the sample was detected on the instrument. Each cycle incluedes the following steps: 1) immersing in buffer for 60 seconds; 2) detecting whether the antigen nonspecifically binding to the sensor; 3) regeneration of 10 mM glycine solution with pH 1.7; 4) immersing in the buffer for 60 seconds; 5) immobilizing the antibody on the sensor for 20 seconds; 6) immersing the sensor in the buffer for 180 seconds; 7) the antigen binding to the antibody for 180 seconds; 8) dissociating the antigen from the antibody for 10 minutes; 9) regenerating the sensor.
In general terms: BLI is a label-free optical method that tracks binding on a fibre tip over time.
B2 showed a Kd of 0.302 nM, an off-rate (koff) of 0.000289 s⁻¹ and a kon of 958000 M⁻¹ s⁻¹.
B3 gave a Kd of 0.16 nM, an off-rate (koff) of 0.000165 s⁻¹ and a kon of 1.03e+06 M⁻¹ s⁻¹.
Taken in the same sequence, the figures for B4 were 0.243 nM, 0.00025 s⁻¹ and 1.03e+06 M⁻¹ s⁻¹.
In the same order, the values of B5 are 0.452 nM, 0.000477 s⁻¹ and 1.06e+06 M⁻¹ s⁻¹.
For B6, the dissociation constant (Kd) was 0.214 nM, the off-rate (koff) was found to be 0.00021 s⁻¹ and the kon came to 980000 M⁻¹ s⁻¹.
